In publication PMC5467235, “Variation in auxin sensing guides AUX/IAA transcriptional repressor ubiquitylation and destruction” (Nature Communications, 2017):

B1: GST-IAA6 [Arabidopsis thaliana] / ASK1-TIR1 protein complex [Arabidopsis thaliana] (parent)
chain 1: MAKEGLALEITELRLGLPGDNYSEISVCGSSKKKKRVLSDMMTSSALDTENENSVVSSVEDESLPVVKSQAVGWPPVCSYRRKKNNEEASKAIGYVKVSMDGVPYMRKIDLGSSNSYINLVTVLENLFGCLGIGVAKEGKKCEYIIIYEDKDRDWMLVGDVPWQMFKESCKRLRIVKRSDATGFGLQQD
chain 2: MQKRIALSFPEEVLEHVFSFIQLDKDRNSVSLVCKSWYEIERWCRRKVFIGNCYAVSPATVIRRFPKVRSVELKGKPHFADFNLVPDGWGGYVYPWIEAMSSSYTWLEEIRLKRMVVTDDCLELIAKSFKNFKVLVLSSCEGFSTDGLAAIAATCRNLKELDLRESDVDDVSGHWLSHFPDTYTSLVSLNISCLASEVSFSALERLVTRCPNLKSLKLNRAVPLEKLATLLQRAPQLEELGTGGYTAEVRPDVYSGLSVALSGCKELRCLSGFWDAVPAYLPAVYSVCSRLTTLNLSYATVQSYDLVKLLCQCPKLQRLWVLDYIEDAGLEVLASTCKDLRELRVFPSEPFVMEPNVALTEQGLVSVSMGCPKLESVLYFCRQMTNAALITIARNRPNMTRFRLCIIEPKAPDYLTLEPLDIGFGAIVEHCKDLRRLSLSGLLTDKVFEYIGTYAKKMEMLSVAFAGDSDLGMHHVLSGCDSLRKLEIRDCPFGDKALLANASKLETMRSLWMSSCSVSFGACKLLGQKMPKLNVEVIDERGAPDSRPESCPVERVFIYRTVAGPRFDMPGFVWNMDQDSTMRFSRQIITTNGL
chain 3: MSAKKIVLKSSDGESFEVEEAVALESQTIAHMVEDDCVDNGVPLPNVTSKILAKVIEYCKRHVEAAASKAEAVEGAATSDDDLKAWDADFMKIDQATLFELILAANYLNIKNLLDLTCQTVADMIKGKTPEEIRTTFNIKNDFTPEEEEEVRRENQWAFE

Variants of: B1
Experiment: one-point saturation binding assay with [3H]IAA (radioligand binding)
Conditions: 200 nM [3H]IAA, read off a plot

Question: For chain 1 MAKEGLALEITELRLGLPGDNYSEISVCGSSKKKKRVLSDMMTSSALDTENENSVVSSVEDESLPVVKSQAVGWPPVRSYRRKKNNEEASKAIGYVKVSMDGVPYMRKIDLGSSNSYINLVTVLENLFGCLGIGVAKEGKKCEYIIIYEDKDRDWMLVGDVPWQMFKESCKRLRIVKRSDATGFGLQQD [chain 1 C78R], which response is on record?
Answer: The response was 3100 c.p.m.
